Test results published in the supplement of paper PMC12764529.
± gives the half width of the 95% confidence interval.

assay: folding stability dG unfold (combined trypsin and chymotrypsin); higher = more stable
Procedure, shortened: (§1)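 K50 was inferred by Bayesian fitting of sequencing counts obtained after protease digestion of designed mini-proteins. Unfolding free energy was derived by comparison with a sequence-predicted unfolded-state K50 and a shared folded-state K50, for each protease or both combined. The mini-proteins were under 80 residues, had no cysteine, were carried in a PA-tagged cDNA display construct, and were kept only if AlphaFold2 dimer inter-PAE exceeded 15.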

Point of comparison: “SAGMPSVTVTPVTVTVEGTAPPDLTEEELRADPTYTRTVEIDATVTLYPETGTVTVTLPGGVTVTLPSPSAG [r5_701_JUSTAS]”, “folding stability dG unfold” value 0.79 ± 0.095 kcal/mol. Against it:
- SEKLTEEEVEKLAEELAKELEEETGKKVTVEVEVEKVEVEKDGEKEEVEVVRIKITVDPETGEVTIEVEPSA [r9_9_TrROS_Hall] — higher, 1.56 ± 0.45 kcal/mol
- SAGGTIYIFIPGLTAEEILKFIAEEFPGHENVTIFWPKGYYVKITVDNGNIKIDKVQPMRPMPPGDPSAGGS [r8_225_TrROS] — higher, 2.99 ± 0.084 kcal/mol
- SAGGSAGGSAGGPILKITLELSPEEIEELAKALGLKVKKVEKEKNKDGKLRVTIYIELKSAGGSAGGSAGGS [r10_999_TrROS_Hall] — higher, 2.81 ± 0.078 kcal/mol
- SAATSSTSISIPASTTSLEDVRATLAALGYPPERIVALEVVKVEPGSTKITVTLERPDGTRRTVTVTSASAG [r14_30_JUSTAS] — higher, 2.76 ± 0.058 kcal/mol
- SAGGKKKIKIIEKKKINGKTILKIEVDGKKIIIIKTPNKVYIFVIDKNGKKKVIEMSPEEALKKLIEKSAGG [r13_98_TrROS_Hall] — higher, 3.59 ± 0.13 kcal/mol
- SAGGSAGGSAGGMINIEGSSFEIVQPDGKPIGSESTGSAEELAKKLPSSYSVLPKGVPPSAGGSAGGSAGGS [r10_310_JUSTAS] — higher, 2.25 ± 0.27 kcal/mol
- SAGGSAGGSAGTIKVNGKTVTITKNKKTGKYTITVTLKNGEKKTFVFPSKEDVEEALKALSAGGSAGGSAGG [r11_238_TrROS_Hall] — higher, 3.94 ± 0.13 kcal/mol
- SAGGRYYFVRIEIYNPNNGRPFDIMIPFPGMPAEQVKEQVKEIADELAKQHGMDVKVKVEIQPLPPDSAGGS [r8_185_TrROS] — higher, 1.95 ± 0.17 kcal/mol
- SAGGSAGGGNWERVEFTFTKRVYDPKNGKPMKDVMVEIDVYRDPNEGALEIEIEMPPGFDYIMISAGGSAGG [r6_206_TrROS] — higher, 3.93 ± 0.29 kcal/mol
- SAGGGSMLIRRRLLLVERIEDGLLTYDIEEEVYLPLPEPEVPVSVERRPDGSLVLTFPDGTRRLLPRSAGGS [r16_136_JUSTAS] — higher, 2.01 ± 0.13 kcal/mol
- SAGGSASVKVEITEIKSSNPESSSNKIDIPVKVYDPETGKEVLSVEEIAKKIEEENPGKPVGYVPESAGGSA [r2_27_JUSTAS] — lower, 0.281 ± 0.17 kcal/mol
- SAGGSAGGGYAEFETTAVLPDGRVYRAKIVLSPDPDIVKIRLFSPEGEEEIELHPDDPLLLTPGSAGGSAGG [r6_926_TrMRF] — higher, 1.62 ± 0.051 kcal/mol
- SALDVPPDARVYVFRLRYPVPPGVSAADVAARVRAELSERFGPDVEIVVTVTPDPETGEVLVEAVVVEPVSA [r9_657_TrMRF] — higher, 3.82 ± 0.16 kcal/mol
- SAGGSAGGSAGFKVPPGWKIVNTYRSPESGYPTAILRDPGDNKPLIFDFDNGKIMPAKDISAGGSAGGSAGG [r11_268_TrROS] — lower, -0.178 ± 0.55 kcal/mol
- SAGGLDPDGKIRWQPITITIEIPIPPGDEELANKIADWLRDLGIEVEIKRNPNGYIQITVEFWVLVIDSAGG [r13_702_TrROS] — higher, 4.89 ± 0.31 kcal/mol
- SAGGSAGGSAGGVKYLTLTLPDGTVIKVPVDEPVEIRGEDGRPVEIVEAKVTEGPPGLGSAGGSAGGSAGGS [r10_20_JUSTAS] — higher, 1.94 ± 0.072 kcal/mol

assay: folding stability dG unfold from chymotrypsin proteolysis; higher = more stable
Procedure, shortened: as §1

Point of comparison: “SAGGSAGGSAGFKVPPGWKIVNTYRSPESGYPTAILRDPGDNKPLIFDFDNGKIMPAKDISAGGSAGGSAGG [r11_268_TrROS]”, “folding stability dG unfold” value -0.535 ± 0.69 kcal/mol. Against it:
- SEKLTEEEVEKLAEELAKELEEETGKKVTVEVEVEKVEVEKDGEKEEVEVVRIKITVDPETGEVTIEVEPSA [r9_9_TrROS_Hall] — higher, 1.43 ± 0.2 kcal/mol
- SAGGTIYIFIPGLTAEEILKFIAEEFPGHENVTIFWPKGYYVKITVDNGNIKIDKVQPMRPMPPGDPSAGGS [r8_225_TrROS] — higher, 3.31 ± 0.026 kcal/mol
- SAGGSAGGSAGGPILKITLELSPEEIEELAKALGLKVKKVEKEKNKDGKLRVTIYIELKSAGGSAGGSAGGS [r10_999_TrROS_Hall] — higher, 3.24 ± 0.057 kcal/mol
- SAATSSTSISIPASTTSLEDVRATLAALGYPPERIVALEVVKVEPGSTKITVTLERPDGTRRTVTVTSASAG [r14_30_JUSTAS] — higher, 2.388 ± 0.011 kcal/mol
- SAGGKKKIKIIEKKKINGKTILKIEVDGKKIIIIKTPNKVYIFVIDKNGKKKVIEMSPEEALKKLIEKSAGG [r13_98_TrROS_Hall] — higher, 3.95 ± 0.042 kcal/mol
- SAGGSAGGSAGGMINIEGSSFEIVQPDGKPIGSESTGSAEELAKKLPSSYSVLPKGVPPSAGGSAGGSAGGS [r10_310_JUSTAS] — higher, 2.72 ± 0.11 kcal/mol
- SAGGSAGGSAGTIKVNGKTVTITKNKKTGKYTITVTLKNGEKKTFVFPSKEDVEEALKALSAGGSAGGSAGG [r11_238_TrROS_Hall] — higher, 4.14 ± 0.08 kcal/mol
- SAGGRYYFVRIEIYNPNNGRPFDIMIPFPGMPAEQVKEQVKEIADELAKQHGMDVKVKVEIQPLPPDSAGGS [r8_185_TrROS] — higher, 2.06 ± 0.07 kcal/mol
- SAGGSAGGGNWERVEFTFTKRVYDPKNGKPMKDVMVEIDVYRDPNEGALEIEIEMPPGFDYIMISAGGSAGG [r6_206_TrROS] — higher, 4.23 ± 0.23 kcal/mol
- SAGGGSMLIRRRLLLVERIEDGLLTYDIEEEVYLPLPEPEVPVSVERRPDGSLVLTFPDGTRRLLPRSAGGS [r16_136_JUSTAS] — higher, 2.39 ± 0.17 kcal/mol
- SAGGSASVKVEITEIKSSNPESSSNKIDIPVKVYDPETGKEVLSVEEIAKKIEEENPGKPVGYVPESAGGSA [r2_27_JUSTAS] — within error, 0.0963 ± 0.17 kcal/mol
- SAGGSAGGGYAEFETTAVLPDGRVYRAKIVLSPDPDIVKIRLFSPEGEEEIELHPDDPLLLTPGSAGGSAGG [r6_926_TrMRF] — higher, 1.66 ± 0.062 kcal/mol
- SALDVPPDARVYVFRLRYPVPPGVSAADVAARVRAELSERFGPDVEIVVTVTPDPETGEVLVEAVVVEPVSA [r9_657_TrMRF] — higher, 4.05 ± 0.058 kcal/mol
- SAGMPSVTVTPVTVTVEGTAPPDLTEEELRADPTYTRTVEIDATVTLYPETGTVTVTLPGGVTVTLPSPSAG [r5_701_JUSTAS] — higher, 0.929 ± 0.031 kcal/mol
- SAGGLDPDGKIRWQPITITIEIPIPPGDEELANKIADWLRDLGIEVEIKRNPNGYIQITVEFWVLVIDSAGG [r13_702_TrROS] — higher, 5.03 ± 0.29 kcal/mol
- SAGGSAGGSAGGVKYLTLTLPDGTVIKVPVDEPVEIRGEDGRPVEIVEAKVTEGPPGLGSAGGSAGGSAGGS [r10_20_JUSTAS] — higher, 2.326 ± 0.021 kcal/mol

assay: folding stability dG unfold from trypsin proteolysis; higher = more stable
Procedure, shortened: as §1

Point of comparison: “SAGMPSVTVTPVTVTVEGTAPPDLTEEELRADPTYTRTVEIDATVTLYPETGTVTVTLPGGVTVTLPSPSAG [r5_701_JUSTAS]”, “folding stability dG unfold” value 0.432 ± 0.075 kcal/mol. Against it:
- SEKLTEEEVEKLAEELAKELEEETGKKVTVEVEVEKVEVEKDGEKEEVEVVRIKITVDPETGEVTIEVEPSA [r9_9_TrROS_Hall] — higher, 1.49 ± 0.11 kcal/mol
- SAGGTIYIFIPGLTAEEILKFIAEEFPGHENVTIFWPKGYYVKITVDNGNIKIDKVQPMRPMPPGDPSAGGS [r8_225_TrROS] — higher, 2.52 ± 0.073 kcal/mol
- SAGGSAGGSAGGPILKITLELSPEEIEELAKALGLKVKKVEKEKNKDGKLRVTIYIELKSAGGSAGGSAGGS [r10_999_TrROS_Hall] — higher, 2.12 ± 0.085 kcal/mol
- SAATSSTSISIPASTTSLEDVRATLAALGYPPERIVALEVVKVEPGSTKITVTLERPDGTRRTVTVTSASAG [r14_30_JUSTAS] — higher, 3.14 ± 0.054 kcal/mol
- SAGGKKKIKIIEKKKINGKTILKIEVDGKKIIIIKTPNKVYIFVIDKNGKKKVIEMSPEEALKKLIEKSAGG [r13_98_TrROS_Hall] — higher, 2.08 ± 0.075 kcal/mol
- SAGGSAGGSAGGMINIEGSSFEIVQPDGKPIGSESTGSAEELAKKLPSSYSVLPKGVPPSAGGSAGGSAGGS [r10_310_JUSTAS] — higher, 1.67 ± 0.21 kcal/mol
- SAGGSAGGSAGTIKVNGKTVTITKNKKTGKYTITVTLKNGEKKTFVFPSKEDVEEALKALSAGGSAGGSAGG [r11_238_TrROS_Hall] — higher, 3.27 ± 0.11 kcal/mol
- SAGGRYYFVRIEIYNPNNGRPFDIMIPFPGMPAEQVKEQVKEIADELAKQHGMDVKVKVEIQPLPPDSAGGS [r8_185_TrROS] — higher, 1.73 ± 0.092 kcal/mol
- SAGGSAGGGNWERVEFTFTKRVYDPKNGKPMKDVMVEIDVYRDPNEGALEIEIEMPPGFDYIMISAGGSAGG [r6_206_TrROS] — higher, 2.79 ± 0.28 kcal/mol
- SAGGGSMLIRRRLLLVERIEDGLLTYDIEEEVYLPLPEPEVPVSVERRPDGSLVLTFPDGTRRLLPRSAGGS [r16_136_JUSTAS] — higher, 1.65 ± 0.077 kcal/mol
- SAGGSASVKVEITEIKSSNPESSSNKIDIPVKVYDPETGKEVLSVEEIAKKIEEENPGKPVGYVPESAGGSA [r2_27_JUSTAS] — within error, 0.293 ± 0.093 kcal/mol
- SAGGSAGGGYAEFETTAVLPDGRVYRAKIVLSPDPDIVKIRLFSPEGEEEIELHPDDPLLLTPGSAGGSAGG [r6_926_TrMRF] — higher, 1.46 ± 0.034 kcal/mol
- SALDVPPDARVYVFRLRYPVPPGVSAADVAARVRAELSERFGPDVEIVVTVTPDPETGEVLVEAVVVEPVSA [r9_657_TrMRF] — higher, 3.57 ± 0.12 kcal/mol
- SAGGSAGGSAGFKVPPGWKIVNTYRSPESGYPTAILRDPGDNKPLIFDFDNGKIMPAKDISAGGSAGGSAGG [r11_268_TrROS] — within error, 0.291 ± 0.11 kcal/mol
- SAGGLDPDGKIRWQPITITIEIPIPPGDEELANKIADWLRDLGIEVEIKRNPNGYIQITVEFWVLVIDSAGG [r13_702_TrROS] — higher, 3.82 ± 0.33 kcal/mol
- SAGGSAGGSAGGVKYLTLTLPDGTVIKVPVDEPVEIRGEDGRPVEIVEAKVTEGPPGLGSAGGSAGGSAGGS [r10_20_JUSTAS] — higher, 0.963 ± 0.042 kcal/mol
